For this data set, the target named is T1, CasM.265466 D220R (unidentified, D220R).
T1 chain: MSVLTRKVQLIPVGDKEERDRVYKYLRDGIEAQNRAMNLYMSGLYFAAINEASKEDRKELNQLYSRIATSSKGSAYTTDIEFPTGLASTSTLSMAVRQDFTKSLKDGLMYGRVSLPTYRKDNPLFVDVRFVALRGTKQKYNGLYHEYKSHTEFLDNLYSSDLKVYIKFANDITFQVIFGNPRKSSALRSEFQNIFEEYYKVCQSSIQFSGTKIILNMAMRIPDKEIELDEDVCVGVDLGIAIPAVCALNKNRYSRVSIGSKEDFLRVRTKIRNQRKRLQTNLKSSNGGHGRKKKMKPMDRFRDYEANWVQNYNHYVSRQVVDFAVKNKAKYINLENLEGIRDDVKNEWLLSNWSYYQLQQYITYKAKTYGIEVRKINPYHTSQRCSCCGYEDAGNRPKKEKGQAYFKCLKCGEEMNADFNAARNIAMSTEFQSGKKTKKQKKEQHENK
The data set can be described thus: cell_activity; AAV8 in hAPOC3 mice, vehicle 936; PAM NNTN. The text has this: Samples were collected from mice at 2 and 4 weeks.
Levels of human APOC3 protein in liver were quantified by ELISA. CasM.265466 variant D220R and multiple APOC3 guide RNAs tested reduced human ApoC3 protein in liver at 2 weeks and 4 weeks. […] Liver and body weights were normal at 0, 2 and 4 weeks. At four weeks post injection ALT levels were reduced in mice that received CasM.265466 variant D220R or CasPhi.12 variant L26R when compared those of mice receiving vehicle only. […] The guide IDs shown in the legend from top to bottom correspond to the data points in the graphs from left to right.

B1: R16927 guide ; APOC3 target of R16927 (ssRNA ; dsDNA)
RNA: ACAGCUUAUUUGGAAGCUGAAAUGUGAGGUUUAUAACACUCACAAGAAUCCUGAAAAAGGAUGCCAAACAGUUCUGGGAUUUGGACCCU
DNA 1: AGTTCTGGGATTTGGACCCT
DNA 2: AGGGTCCAAATCCCAGAACT
With B1, the activity stood at 145 mg/dL serum triglycerides.

B2: R16928 guide ; APOC3 target of R16928 (ssRNA ; dsDNA)
RNA: ACAGCUUAUUUGGAAGCUGAAAUGUGAGGUUUAUAACACUCACAAGAAUCCUGAAAAAGGAUGCCAAACGACCCUGAGGUCAGACCAAC
DNA 1: GACCCTGAGGTCAGACCAAC
DNA 2: GTTGGTCTGACCTCAGGGTC
For the molecule B2, the activity is 190 mg/dL serum triglycerides.

B3: R16929 guide ; APOC3 target of R16929 (ssRNA ; dsDNA)
RNA: ACAGCUUAUUUGGAAGCUGAAAUGUGAGGUUUAUAACACUCACAAGAAUCCUGAAAAAGGAUGCCAAACACCUCAGGGUCCAAAUCCCA
DNA 1: ACCTCAGGGTCCAAATCCCA
DNA 2: TGGGATTTGGACCCTGAGGT
As to B3, the activity was found to be 247 mg/dL serum triglycerides.
